{"source": "patent US20080220450A1", "about": "“Population Based Prediction Methods for Immune Response Determinations and Methods for Verifying Immunological Response Data” (Danisco US, Inc., Genencor Division, priority 2004, published 2008)", "molecular_target": "HLA-DR6(13) (human)", "experiment": "competition assay against a standard peptide on purified HLA class II"}
{"substance": "B. amyloliquifaciens subtilisin BPN' Y217L epitope peptide, amino acids 70-84 (from UniProt P00782 177-191)", "values": [{"measurement": "IC50", "result": 0.69, "unit": "nM"}]}
